Kd and koff data for 2 molecules are collected here from publication doi:10.1101/2023.08.24.554544 (2023).

For experiment [1], the target named is T1, aster yellows witches'-broom phytoplasma SAP05 (AYWB_SAP05), mature, 33-135 (Aster Yellows phytoplasma strain …, UniProt Q2NK94 33-135).
T1 chain: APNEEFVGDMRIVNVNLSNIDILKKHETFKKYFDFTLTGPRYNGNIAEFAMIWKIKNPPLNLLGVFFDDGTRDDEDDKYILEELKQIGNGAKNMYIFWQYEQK
The experiment in a line: SPR.

The target of experiment [2] is V-shape-GSGS-C-ter peptide (fused V-shape and C-ter peptide of SAP05, linked by the GSGS linker) (UniProt Q2NK94). The experiment in a line: SPR.

B1: GST-tagged homo sapiens Rpn10 (hRpn10) vWA (1-193aa) (domain or fragment)
chain: MVLESTMVCVDNSEYMRNGDFLPTRLQAQQDAVNIVCHSKTRSNPENNVGLITLANDCEVLTTLTPDTGRILSKLHTVQPKGKITFCTGIRVAHLALKHRQGKNHKMRIIAFVGSPVEDNEKDLVKLAKRLKKEKVNVDIINFGEEEVNTEKLTAFVNTLNGKDGTGSHLVTVPPGPSLADALISSPILAGEG
B1 came in with a Kd in experiment [1] of about 149 µM.

B2: GST-tagged A. thaliana Rpn10 (AtRpn10) vWA domain (domain or fragment)
chain: VLEATMICIDNSEWMRNGDYSPSRLQAQTEAVNLLCGAKTQSNPENTVGILTMAGKGVRVLTTPTSDLGKILACMHGLDVGGEINLTAAIQIAQLALKHRQNKNQRQRIIVFAGSPIKYEKKALEIVGKRLKKNSVSLDIVNFGEDDDEEKPQKLEALLTAVNNNDGSHIVHVPSGANALSDVLLSTPVFTG
In experiment [2], B2 yielded a koff of 0.0115 s⁻¹.
